In series [1] the target is p60-Tumor Necrosis Factor Receptor Associated Kinase (p60TRAK). Put plainly: U937 lysate depleted with p13^suc1 -agarose or GST beads, supernatant precipitated with GST-p60Δ15, kinase assay with histone H1.
The target is the same in series [2].
Another series has as its target T1, p13^suc1 -agarose (UniProt P08463).
T1 sequence: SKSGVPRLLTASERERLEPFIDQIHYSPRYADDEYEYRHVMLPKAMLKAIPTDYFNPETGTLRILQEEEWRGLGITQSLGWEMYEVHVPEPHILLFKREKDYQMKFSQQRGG
The series is described as follows: U937 lysate depleted with p13^suc1 -agarose or GST beads, supernatant precipitated with GST-p60Δ8 or GST-p60Δ15, kinase assay with Rb^110.

Series [3] deals with GST-p60Δ4 (Homo sapiens (Human)) (UniProt P19438).
In series [4] the target is GST-p60Δ5 (Homo sapiens (Human)) (UniProt P19438).

Where only a bound is given, the exact number is not on record here.

On to p13^suc1 -agarose (from UniProt P08463), for which the depletion of p60TRAK activity in series [1] came to 50%.

In turn, p49^WEE1 (from UniProt P30291) (enzyme) registered a histone kinase activity of p60TRAK in series [2] of over 70%.

As to “p60-Tumor Necrosis Factor Receptor Associated Kinase (p60TRAK)”, the “reduction of Rb^110 phosphorylation by p60TRAK after depletion” value with p13^suc1 -agarose is “phosphorylation of the retinoblastoma protein (Rb^110) by p60TRAK after depletion with p13^suc1 -agarose was reduced by greater than 60%”.

“p60-Tumor Necrosis Factor Receptor Associated Kinase (p60TRAK) (enzyme)”: the phosphorylation in an in vitro kinase assay in series [3] and in series [4] was 50% throughout.

These data come from US5856161.
